assay: soluble on expression in E. coli; label from the status in PepcDB or PDB records

| Sequence | soluble on expression in E. coli |
| --- | --- |
| MSSEPTSSIESDNLRRSKRKKFKLDFVAAAHGNNQKKSRKDPHGQGDDDDDTFDDDLNHFEPLSVLTEQDVSMEMFEDDEEDTVSRRRTRRSTAHFQDYQEPDRWIENSGPHACHKCPSRYESKSSLANHTKMHLGEKRKFACELCDFSASTLKSLTHHNNIHQNFGVLSQQTSPVIPVASSADSTLNSSINSTGCQINAPPAPKLDEEAPIAVESVVVHHEDVAEFDTTPPPILEREDDGPPVLIREAPVRKSNRPMKPTQKAQKMTKQRERKSKTVESPKGSLPSSSASSVTPPPVRKDVEKPKIFVKTTKKNLKKTMKITKVRQRCPHCPFTTSTVTRLNRHSGGHKLKEGYICPSENCNFMCRKAGFLQKHYILHKGTLPWPPEYVKKGGAKMKRTFPESEEKKIEVTEKVQKMKKMHKRRANTVQVVAKAQLKSYIKVEVDDVIFKKCNIGECEFLTQTLTQLIVHKVKTHDTKTAFPQHRFLCLTCGHRAKSYAALRTHKLIEHTSTHKRFHRTYYLKECVGDKFFVKYNLSKVQEEVKEEPKEADGDESGDESFDSMCPASDVHPETLAAIEMKDVFFCCNMCPYKAPTMNRCQRHYDKHFKNDEFKCQYCSWSSRSKEVIVNHEKLHPTVVVANTNEAPVVKNEIEAKVEVLSKTVSSPVECTEESSLSKSIQLWCQREKLRHPELDEQFTRKMIDGVKGFQCTDCPYTSKYRGDMRSHKKRHDIEQLYRCVQCTYTTNRPVSLKDHLKQHAIVNMSIADIKSRRVVVNQGVKIGMRRGVGKDKIYCCDKCPYVTLALGCLWRHHRNHRDTAKINICSNCSYSSIDQRKMEEHTIIHLGLGLNEAVPFVKRVDQKGRPVSSLTDLNSEKMNERKSTKRKMLDKVEKMEVGEDEEDDEESVDKGTDDGDYKQRPEKKRKQSSEEPASDPELFGSSSQPTRQLSERATRNRINYSLLSKNGSGKPTPSTSSANLEKLAGSSGGASSESPEPDESVEVSHWKIRTFLRSEYGVKESLKCPDCPYKSSEPDVLEKHRYYHMTKTTPRPYACSDCTFNTYTPTALLQHLKLHSEGVYFDPMVKKHMKHRKGDSIPPGVKGYYCKNCSFKTSIHRNFIEHSAYHRQQLINRINITLKRQPPRIEYQRPKLKHQFVAKNAKYCKKCTFKCVSQSNFIEHLDRHGWNQLYKCYSCDYSDNTKSVVDFHQLNHHIVKDQTLHSICQSAKFRLENGVIQIPETEKSKPTPDEFVSKTRGLLKCPSCEYFCHVSSELAFHMSVHHLTEPNARETISYLHMGLVPPKATVTTV | not soluble |
| MGSDKIHHHHHHMAVSSLAGLGLRREMLAEFSQSVPAQIDFFEVAPENWMALGGKYGKQFRALTERHAFFCHGLSLSIGSSAPLDIDFIKGIKAFLDLHGIAVYSEHLSYCSGSGHLYDLMPMPFTPEAVRHIAGRVKQVEDIIERPLILENISFYAAPGAQMTELEFVLAVLEEADCQLLLDVNNIYVNSINHNYDAAAYLAAMPTERIRYLHVAGHYVEAPDLIVDTHGADIVDPVWQLLCDCYALHGPLPTLLERDFNIPPIGELLQEIDRIRDYQAAAIRTSRRAG | not soluble |
| MGSDKIHHHHHHQLVLAPADAERYAQNSFPEYLELLTLQNDAAVPADIQRNADWLEKAFQKRGFTTQTLTNGDKPLVYAEFGAAKSDRKTILFYMHFDGQPVNPSEWQTPPWQPVLKEKDAAGKWQTLPESRLLKGDINPEWRIFARASADDKGPIVMFLAAMDAMKEKGVEPAVNIKVLLDSEEEKGSPGLTTVMADHLMLLKSDGMVIYDGAMPSSNRPGINFGNRGSIQIDMTVFGANAAAHSGGYGNVIPNPVQNLATLLASMKDADGKVTIPGYYDRVTLSDSDKKQVAETSPPAGSLEKRFGVAQLDKVAGNAAEAVQYPSLDILGIKAGETGKKASNAIPSTATASVNIRTVPETPPDDMYALLRQYIASKGFHIIAGESPTQAEREQYPHLISLHLTAYPSSAYAARTEIDSPLGHWAVATTTAPRGIAPEKNRMMGGTLPMSGAVSVLKVPYVIVPLVNADNNQHSFDENLRLGNYLEGIRTIVAMATTPLS | not soluble |
| MSLNLDFELNLTQQQKLVMTQQMQMSIKLLQMSNMELNEYIRSEIEENPLLDGKEVIKNDEYQSEMSKVDYKEFIKYLDFDNYTHENYSYRSEEEEVSPFNFIGSKKSFTEYLLDQLREISIDSETRHICEYIIENLDRDGYLRDSLEDIGMAVHKELKSVQNALNVVQSLEPIGVGARNLAECLKLQIYVRNVNDTKLIEIIDKHLGNIAENKYGVIAKELNITPKEAQEYGDYIKKLEPKPSRGFFTGDEVKYVVPDAFIRKIDDDFYVIMNDSSIPKLSINNTYKNILNTENDKKDVDYVKEKLNSAMFLLKSIEQRKTTLYEVLNEILRYQKAYFVGKTNYLRPMTLKDISEKLGMHESTISRAIREKYVYIDTKGLVKIRDMFTTGIASAYSVSEDKKDMSTQKIKNEIRDLIEKENKKSPLSDQKLSEILKEKGMNISRRTVAKYREEIGIKSSAKRKRYEGHHHHHH | soluble |
| EFVINPNGKSEVCILHEYMQRVLKVRPVYNFFECENPSEPFGASVTIDGVTYGSGTASSKKLAKNKAARATLEILIPDFVKQTSE | soluble |
| MYGRKLYNVDQTNVYASLMFETEFNKQNSFSAGLSFNYDAYDQHYRLENQTELPLIKAFAKEAVPGAYAQYTLNLNDQWMLMAGLRGDYSNEHGFFVTPRAHLKYNPNEYVHFRLSAGKGYRTNHVLAENNYLLSSSRKVEIAKGLDMEEAWNYGASVSTYVPVFGKTLNINAEYYYTDFLKQVVVDMDSNPHEVAFYNLDGRSYSHVFQVEASYPFFKGFTLTGAYRLTDAQTTYKGQRMEKPLTSKYKGLLTASYQTPLGIWQFDATLQLNGGGRMPSPYELADGQLSWERRYGSFEQLSAQITRYFRRWSVYIGGENLTNFKQKNPIIDAANPWGGNFDSTMIWGPVHGAKAYIGIRFNLARNE | not soluble |
| MTMETVESQHDGSITASLTESKSAHVQTQTGQNSIPALAQVAAIAETDESAESGGVIDSHKRREILSRRPSYRKILNELSSDVPGVPKIEEERSEEEGTPPSIATMAVPTSIYQTSTGQYIAIAQGGTIQISNPGSDGVQGLQALTMTNSGAPPPGATIVQYAAQSADGTQQFFVPGSQVVVQAATGDMPTYQIRAPTAALPQGVVMAASPGSLHSPQQLAEEATRKRELRLMKNREAAKECRRRKKE | soluble |
| MKLSATIAIILLNWNGWRDTVDCVESCRKLDYPNFRIVIVDNGSTDGSEAILRERFPDVELIQTGANLGFAGGNNAGIRHALVRGADYVWLLNNDTVVEPGALGALVRVAESDPRVGMVGSKIVYFDDPWLLWFAGAVIDPERPHRPFHRGLHERDTGQYDRVAETGYVTGCSLLARREMMAEVGMLDDDLFLYFEDADWSARAARAGWKLLYVPDSVVRHKESVSSGGAASPRLVYYTARNRLYFVRRNFPAKLAAALCYDLFEHVLVNVKKGRFPLAVAGCRGIRDFLAGKIGPMPLEHHHHHH | soluble |
| MSLDLHYKQFLLLNLYRQDKCLLAEVLLKDSSEFSFGVKFFNYGQLIAYIDSLNSNVYNASITENSFFMTFFRSYIIENTSHKNIRFFLENVECPFYLRHNEVQEFMFAMTLFSCGNFDQSYEIFQLHDYPEAINDKLPTFLEDLKSENYHGDSIWKDLLCTFTVPYRHSAFYYQLSLLFDRNNSQEFALKCISKSAEYSLKEIQIEELQDFKEKQHIHYLNLLIHFRMFEEVLDVLRLGHECLSDTVRTNFLQLLLQEDIYSRDFFSTLLRLCNAHSDNGELYLRTVDIKIVDSILSQNLRSGDWECFKKLYCFRMLNKSERAAAEVLYQYILMQADLDVIRKRKCYLMVINVLSSFDSAYDQWILNGSKVVTLTDLRDELRGEGHHHHHH | not soluble |
| MSLKITLFGGAGFLGSHVCDKLSEAGHDVTVVDLRPSPYLRPDQTMITGNILDEELVARAVEGADMVFNYAGIADIGEANRRPVDTARINVLGNVIALEACRKAGVKRYVFASSLYVYGKSGGFYRCSKQACELYIENYQAMHGLDYTILRYGSLYGSRADIRNAINRFVAEALEKGAITYYGSPTALREYIHVEDAALCTVEVLKPEYANENIVLSGNQPMRVGDLFKMIGEMLGKDIEVVYQHDPNSGHYQITPYAFMPKVGKKMTPILTTDLGQGILRVMEDVHREMHPDMHDVGGYLVSKDEGHHHHHH | soluble |
| ATSDSNMLLNYVPVYVMLPLGVVNVDNVFEDPDGLKEQLLQLRAAGVDGVMVDVWWGIIELKGPKQYDWRAYRSLLQLVQECGLTLQAIMSFHQCGGNVGDIVNIPIPQWVLDIGESNHDIFYTNRSGTRNKEYLTVGVDNEPIFHGRTAIEIYSDYMKSFRENMSDFLESGLIIDIEVGLGPAGELRYPSYPQSQGWEFPGIGEFQCYDKYLKADFKAAVARAGHPEWELPDDAGKYNDVPESTGFFKSNGTYVTEKGKFFLTWYSNKLLNHGDQILDEANKAFLGCKVKLAIKVSGIHWWYKVENHAAELTAGYYNLNDRDGYRPIARMLSRHHAILNFSCLEMRDSEQPSDAKSGPQELVQQVLSGGWREDIRVAGENALPRYDATAYNQIILNARPQGVNNNGPPKLSMFGVTYLRLSDDLLQKSNFNIFKKFVLKMHADQDYCANPQKYNHAITPLKPSAPKIPIEVLLEATKPTLPFPWLPETDMKVDG | soluble |
| AATSRDALPNTEASGPTHSKEIPALTAVETGATNPLVPSDTVQTRHVVQHRSRSESSIESFFARGACVTIMTVDNPASTTNKDKLFAVWKITYKDTVQLRRKLEFFTYSRFDMELTFVVTANFTETNNGHALNQVYQIMYVPPGAPVPEKWDDYTWQTSSNPSIFYTYGTAPARISVPYVGISNAYSHFYDGFSKVPLKDQSAALGDSLYGAASLNDFGILAVRVVNDHNPTKVTSKIRVYLKPKHIRVWCPRPPRAVAYYGPGVDYKDGTLTPLSTKDLTTY | soluble |
| MAHHHHHHMDKIKSWLGFNKKIVFTENKFLLRNVNDQESLQAENVRAEDYPIPEKYLEDPDKIPKYYVFQSNMVTDEDLQPGMLRQLEVDKRLTLPTRTHISFLVTATDVIHSWSIPSLGIKADAIPGRLHKITTFILREGVYYGQCSEMCGTLHGFMPIVVEAVSPEAYAAHAKKYYKE | not soluble |
| MTDYPSIFEPLTVKRMTIKNRVIMPPMGTNLAGLNGEFLEEHMNYYEQRAKGGTGLITIENACVDFPYGTNGTTQLRIDNDQYIPGFYKLTERLHKHGTCVSIQINHAGASAYPARLNGLQPVSASDIPSKKGGTVPRPLTVEEIYEIVNKYGDAARRAQQAGFDAVEIHGGHSYLLCQFLSPLYNKRTDEFGGTPENRARIVKLILEKVRAEVGPFFPIVLRFSADEFTEGGNHLEDILELLDYCQEEADILNVSAAINDNLYLQIDQMNLEDGWRSYLAKAVKDKFNKPTITSGNIRSPKAAEKILSEGYADLLAMGRGLIAEPNWVNKVATGQEDMLRKCISCNIGCADHRISKSKPIRCTVNPDIIHEDKYKETKVTRPTNVVVIGGGTAGLEAACTAAEVGCNTTLIEANEQTGGLARAIANLPDKSRIADFPNYLANRAEKLTNLKVITGTKADTALIDTFNPDVVVNATGSKPLLPPIKGLLDVIDKEGSKVHSIFGLISNIDDFTEFSNKKVAVIGGGAVGLDVVEYFSERGSDVTIVEMMPLLGKDLDMITRLSMMDIIEKNHVDVQTETALTEVAADHFKVKHDGVDAEIPFDYGFVCLGMRPERPLMEELAAYGKEKQIEIVNIGDSAATRKILEGVREGRNILTTLEKIGSL | not soluble |
| MARKKVQRKLDGWKSKEWYNIEAPAYLNRVIVGTTMAGDPSLLVGRNVETTVGELTNDMTKNNTKVILRVNNVVGDIATTDLMGHELTTDYVRSIVKRQTSRIDANVDVRTKDGFVIRVKPTCFTIKRARSSQMQAIREMMVDIVKKRASETDFETFMQEAILGRLSAAIYRQAKFIYPLRRVEIRKTQVEAMPAAAPAAPAAALEHHHHHH | soluble |
| SSKSLKKLVEESREKNQPEVDMSDRGISNMLDVNGLFTLSHITQLVLSHNKLTMVPPNIAELKNLEVLNFFNNQIEELPTQISSLQKLKHLNLGMNRLNTLPRGFGSLPALEVLDLTYNNLSENSLPGNFFYLTTLRALYLSDNDFEILPPDIGKLTKLQILSLRDNDLISLPKEIGELTQLKELHIQGNRLTVLPPELGNLDLTGQKQVFKAENNPWVTPIADQFQLGVSHVFEYIRSETYKYLYGRHMQANPEPPKKNNDKSKKISRKPLAAKNR | soluble |

— the DeepSol protein solubility set
